Experimental data from patent US20260116920A1 (PEPTIDREAM, published 2026).
Starred links: 1 amine or outer side, 2 acyl side, 3 side chain; linkers in the order of their positions; H or OH if unused. Positions of bridges follow the written chain, without caps; N, C: chain ends. Non-standard residues stand in square brackets, D forms with d. Primed or numbered codes have the meaning given here. No end group written: not given here. *: point of attachment. E(PEG8Me) = (S)-30-amino-27-oxo-2,5,8,11,14,17,20,23-octaoxa-26-azahentriacontane-31-oic acid, COCCOCCOCCOCCOCCOCCOCCOCCNC(=O)CC[C@H](N[*:1])C(=O)[*:2]; E(PEG4Me) = (S)-18-amino-15-oxo-2,5,8,11-tetraoxa-14-azanonadecane-19-oic acid, COCCOCCOCCOCCNC(=O)CC[C@H](N[*:1])C(=O)[*:2]; Phe(4-OMe)(3) = (S)-2-amino-3-(4-methoxyphenyl)propanoic acid (source code F4OMe), COc1ccc(C[C@H](N[*:1])C(=O)[*:2])cc1; F4aao = (S)-2-amino-3-(4-(carboxymethoxy)phenyl)propanoic acid, O=C([C@H](Cc1ccc(OCC(=O)[*:3])cc1)N[*:1])[*:2]; Phe(4-OMe)″ = (S)-2-amino-3-(4-methoxyphenyl)propanoic acid (F4OMe), COc1ccc(C[C@H](N[*:1])C(=O)[*:2])cc1; Phe(4-OMe) = F4OMe = (S)-2-amino-3-(4-methoxyphenyl)propanoic acid, COc1ccc(C[C@H](N[*:1])C(=O)[*:2])cc1; E(NHdPEG1Me) = N5-(1,3-dimethoxypropan-2-yl)-L-glutamine, COCC(COC)NC(=O)CC[C@H](N[*:1])C(=O)[*:2]; Trp(1-CH2CO) = O=C([C@H](Cc1cn(CC(=O)[*:3])c2ccccc12)N[*:1])[*:2]; Ala(1-CH2CO2H-4-piperidyl) = N[C@@H](CC1CCN(CC(=O)O)CC1)C(=O)O; Trp(5-Cl) = N[C@@H](Cc1c[nH]c2ccc(Cl)cc12)C(=O)O; Nle(6-morpholino) = N[C@@H](CCCCN1CCOCC1)C(=O)O; Phe(3-COOH) = N[C@@H](Cc1cccc(C(=O)O)c1)C(=O)O; NH(CH2CH2O)8Me = COCCOCCOCCOCCOCCOCCOCCOCCN*; NMePhe(3-Cl) = CN[C@@H](Cc1cccc(Cl)c1)C(=O)O; NMePhe(4-F) = CN[C@@H](Cc1ccc(F)cc1)C(=O)O; 3Pal(6-NH2) = Nc1ccc(C[C@H](N)C(=O)O)cn1; NMeY = CN[C@@H](Cc1ccc(O)cc1)C(=O)O; NMeR = CN[C@@H](CCCNC(=N)N)C(=O)O; NMeF = CN[C@@H](Cc1ccccc1)C(=O)O; 3Pal = N[C@@H](Cc1cccnc1)C(=O)O; 4Pal = N[C@@H](Cc1ccncc1)C(=O)O

These binders were tested against T1, human transferrin receptor (hTfR) (human, UniProt P02786 89-760) (assay: SPR; A = KD <1 nM).
T1 construct: used as 0.5 uM hTfR dimer solution, immobilised on an NTA sensor chip (Ni capture plus EDC/NHS coupling); also called human TfR; TfR1
Procedure: (§1) NTA sensor chip (Global Life Sciences Technologies Japan K.K.) was inserted into BiacoreT200 (Global Life Sciences Technologies Japan K.K.), then the priming operation was performed three times by using running buffer containing: 10 mM HEPES pH 8.0 (Nacalai Tesque, Inc.), 150 mM NaCl (Nacalai Tesque, Inc.), 0.05% Tween 20 (Nacalai Tesque, Inc.), 0.1% BSA (SIGMA-ALDRICH) and 1.0% DMSO (FUJIFILM Wako Pure Chemical Corporation), and equilibrated at a flow rate of 30 μL/min. 350 mM EDTA solution was reacted at a flow rate of 10 μL/min for 60 seconds, 0.5 mM […] solution (Kishida Chemical Co., Ltd.) was reacted at a flow rate of 10 μL/min for 60 seconds, and then the NTA sensor chip was washed with 3 mM EDTA solution (Nacalai Tesque, Inc.) at a flow rate of 10 μL/min for 60 seconds. After mixing 50 μL each of 60 mM EDC solution (Global Life Science Technologies Japan K.K.) and 650 mM NHS solution (Global Life Science Technologies Japan K.K.), the reaction was carried out at a flow rate of 10 μL/min for 420 seconds. 150 μL of 0.5 μM hTfR dimer solution was prepared by dilution with running buffer and reacted at a flow rate of 10 μL/min for 300 seconds to immobilize hTfR on the NTA sensor chip. For the human transferrin receptor (hTfR), recombinant hTfR described in Example 2 of WO2018/124121 was used. After immobilization, capping was performed by reacting with 1.0 M ethanolamine solution (Global Life Sciences Technologies Japan K.K.) at a flow rate of 10 μL/min for 420 seconds. Peptide lysate prepared in DMSO solution to 10 mM was diluted with running buffer to be a final concentration of 10 μM peptide lysate, then peptide solutions of 100 nM, 50 nM, 25 nM, 10 nM, and 5 nM were prepared. Using the above samples, the kinetics of the peptide against hTfR was obtained by SPR measurement.
(§2) The kinetic evaluation model was single-cycle kinetics, and curve fitting was performed using Biacore T200 Evaluation Software Version 3.0 (Global Life Science Technologies Japan K.K.). The binding of the peptide to hTfR was evaluated by performing curve fitting on the obtained sensorgram by least squares method and obtaining the KD value.

T1 sequence (P02786 89-760 limits assumed): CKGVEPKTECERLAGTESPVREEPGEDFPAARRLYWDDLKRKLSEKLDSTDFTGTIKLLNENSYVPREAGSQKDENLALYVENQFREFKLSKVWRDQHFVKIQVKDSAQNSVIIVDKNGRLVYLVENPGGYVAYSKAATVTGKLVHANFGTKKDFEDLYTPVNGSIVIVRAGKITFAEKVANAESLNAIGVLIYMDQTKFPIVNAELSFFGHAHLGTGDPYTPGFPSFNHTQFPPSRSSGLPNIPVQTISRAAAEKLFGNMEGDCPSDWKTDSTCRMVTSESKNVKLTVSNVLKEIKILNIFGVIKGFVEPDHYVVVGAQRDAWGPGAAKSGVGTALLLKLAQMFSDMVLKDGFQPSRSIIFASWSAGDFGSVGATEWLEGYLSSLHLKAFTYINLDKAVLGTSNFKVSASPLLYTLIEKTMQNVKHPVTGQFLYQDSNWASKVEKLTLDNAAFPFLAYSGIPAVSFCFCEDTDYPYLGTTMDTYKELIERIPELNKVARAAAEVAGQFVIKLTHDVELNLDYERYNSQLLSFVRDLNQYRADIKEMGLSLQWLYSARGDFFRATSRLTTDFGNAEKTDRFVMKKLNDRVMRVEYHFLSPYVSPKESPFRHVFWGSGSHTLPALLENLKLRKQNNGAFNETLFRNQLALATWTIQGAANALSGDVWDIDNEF

KD [nM] | binding result | Binder
< 1 | – | {CH2CO}-AV[NMeF]V[Trp(5-Cl)]NY[Phe(4-OMe)]IIRRFYC-NH2 (thioether N-15; not fully specified (residue 14); also: linker PEG4c, place not given here) [894_0251]
< 1 | – | {CH2CO}-AV[NMePhe(3-Cl)]V[Trp(1-CH2CO)]NY[Phe(4-OMe)″]IIRRF[NMeY]C-NH2 (thioether N-15; also: linker PEG4c, place not given here) [894_0391]
< 1 | – | {CH2CO}-AV[NMePhe(4-F)]V[Trp(5-Cl)]NY[Phe(4-OMe)]IIRRFYC-NH2 (thioether N-15; not fully specified (residue 14); also: linker PEG4c, place not given here) [894_0255]
< 1 | – | {CH2CO}-AV[NMePhe(3-Cl)]V[Trp(1-CH2CO)]NY[F4aao]IIRRF[NMeY]C-NH2 (thioether N-15; also: linker G-de-de-de-ds-ds-KN3, attachment not given here) [894_3168]
< 1 | – | {CH2CO}-AV[NMePhe(3-Cl)]VWNY[F4aao]II[E(PEG8Me)]RF[NMeY]C-NH2 (thioether N-15; also: linker PEG4c, place not given here) [849_0397]
– | binds | {CH2CO}-AV[NMePhe(3-Cl)]V[Trp(1-CH2CO)]NY[F4aao]II[Ala(1-CH2CO2H-4-piperidyl)]RF[NMeY]C-NH2 (thioether N-15; also: linker PEG4c, place not given here) [894_0386]
< 1 | – | {CH2CO}-AV[NMeF]V[Trp(5-Cl)]NY[Phe(4-OMe)]IIRRYYC-NH2 (thioether N-15; not fully specified (residue 14); also: linker PEG4c) [894_0289]
– | binds | {CH2CO}-AV[NMePhe(3-Cl)]V[Trp(1-CH2CO)]NY[F4aao]II[Nle(6-morpholino)][Nle(6-morpholino)]F[NMeY]C-NH2 (thioether N-15; also: linker PEG4c, place not given here) [894_0390]
< 1 | – | {CH2CO}-AV[NMePhe(3-Cl)]VWNY[Phe(4-OMe)″]IIRR[4Pal][NMeY]C-NH2 (thioether N-15; also: linker PEG4c) [894_0317]
< 1 | – | {CH2CO}-AV[NMePhe(4-F)]V[Trp(5-Cl)]NYYIIRRFYC-NH2 (thioether N-15; not fully specified (residue 14); also: linker PEG4c, place not given here) [894_0254]
< 1 | – | {CH2CO}-AV[NMePhe(3-Cl)]VWNY[Phe(4-OMe)]IIRRYYC-NH2 (thioether N-15; not fully specified (residue 14); also: linker PEG4c) [894_0291]
< 1 | – | {CH2CO}-AV[NMePhe(3-Cl)]V[Trp(1-CH2CO)]NY[Phe(4-OMe)(3)]IERRF[NMeY]C-NH2 (thioether N-15; also: linker G-de-de-de-ds-ds-KN3, attachment not given here) [894_3167]
< 1 | – | {CH2CO}-AV[NMePhe(3-Cl)]V[Trp(1-CH2CO)]NY[F4aao]II[E(PEG4Me)][Nle(6-morpholino)]F[NMeY]C-NH2 (thioether N-15; also: linker PEG4c, attachment site not given here) [849_0404]
– | binds | AVFVWNYYIIKRYYC (3:MeF,5:MeW,14:MeY; linker G-ds-ds-ds-ds-ds-KN3; ClAc-1/C15 thioether ring; C-term NH2) [894_3200]
< 1 | – | {CH2CO}-AV[NMePhe(3-Cl)]VWNY[Phe(4-OMe)]IIKRFYC-NH2 (thioether N-15; not fully specified (residue 14); also: linker PEG4c) [894_0281]
< 1 | – | {CH2CO}-AV[NMeF]V[Trp(5-Cl)]NYYIIRRFYC-NH2 (thioether N-15; not fully specified (residue 14); also: linker PEG4c, place not given here) [894_0250]
< 1 | – | {CH2CO}-AV[NMePhe(3-Cl)]VWNY[F4aao]II[E(NHdPEG1Me)]R[Phe(3-COOH)][NMeY]C-NH2 (thioether N-15; also: linker PEG4c, place not given here) [849_0399]
< 1 | – | {CH2CO}-AV[NMePhe(3-Cl)]VWNY[Phe(4-OMe)]IIRRFYC-NH2 (thioether N-15; not fully specified (residue 14); also: linker PEG4c) [894_0280]
< 1 | – | {CH2CO}-AV[NMePhe(3-Cl)]VWNY[F4aao]IIRRF[NMeY]C-NH2 (thioether N-15; also: linker PEG4c, place not given here) [894_0392]

What follows are binders tested against T1, human transferrin receptor (hTfR) (assay: SPR; B = KD 1-100 nM).
In short: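 Recombinant hTfR dimer immobilised on Ni-NTA chip with EDC/NHS coupling; running buffer 10 mM HEPES pH 8.0, 150 mM NaCl, 0.05% Tween 20, 0.1% BSA, 1.0% DMSO. Peptides injected at 5–100 nM in single-cycle kinetics; KD from least-squares sensorgram fitting.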

KD [nM] | Binder
1 to 100 | Ac-AV[NMePhe(3-Cl)]V[Trp(1-CH2CO)]NY[F4aao]IIRR[Phe(3-COOH)][NMeY]C (thioether (positions not given here); not fully specified (C-terminus, bridges)) [894_0342]
1 to 100 | Ac-AV[NMePhe(3-Cl)]VWNY[3Pal]IIQQ[4Pal][NMeY]C (thioether (positions not given here); not fully specified (C-terminus, bridges)) [894_0327]

The binders below were run against T1, human transferrin receptor (hTfR) (assay: SPR; C = KD 100 nM-1 uM).
Procedure: as §1, §2

KD [nM] | Binder
100 to 1000 | {CH2CO}-AV[NMePhe(3-Cl)]V[Trp(1-CH2CO)]N[3Pal(6-NH2)][3Pal]IIRE(NH(CH2CH2O)8Me)[4Pal][NMeY]C-NH2 (thioether N-15; also: linker PEG4c) [894_0354]
100 to 1000 | {CH2CO}-AV[NMePhe(4-F)]V[Trp(5-Cl)]NYYII[NMeR][dR]FYC-NH2 (thioether N-15; not fully specified (residue 14); also: linker PEG4c, place not given here) [894_0257]
100 to 1000 | {CH2CO}-AV[NMePhe(3-Cl)]V[Trp(1-CH2CO)]N[3Pal(6-NH2)][F4aao]IIRE(NH(CH2CH2O)8Me)[Phe(3-COOH)][NMeY]C-NH2 (thioether N-15; also: linker PEG4c) [894_0355]
100 to 1000 | {CH2CO}-AV[NMePhe(3-Cl)]V[Trp(1-CH2CO)]N[3Pal(6-NH2)][F4aao]IIRE(NH(CH2CH2O)8Me)[4Pal][NMeY]C-NH2 (thioether N-15; also: linker PEG4c) [894_0356]
100 to 1000 | {CH2CO}-AV[NMePhe(3-Cl)]V[Trp(1-CH2CO)]N[3Pal(6-NH2)][3Pal]IIRE(NH(CH2CH2O)8Me)[Phe(3-COOH)][NMeY]C-NH2 (thioether N-15; also: linker PEG4c) [894_0353]
